Source: patent US20120100139A1 (APTEVO RESEARCH AND DEVELOPMENT, published 2012)

T1: CD86-mIgG (Ancell, Inc) (UniProt P42081 24-247, limits assumed)
T1 construct: Bought reagent
T1 sequence (looked up): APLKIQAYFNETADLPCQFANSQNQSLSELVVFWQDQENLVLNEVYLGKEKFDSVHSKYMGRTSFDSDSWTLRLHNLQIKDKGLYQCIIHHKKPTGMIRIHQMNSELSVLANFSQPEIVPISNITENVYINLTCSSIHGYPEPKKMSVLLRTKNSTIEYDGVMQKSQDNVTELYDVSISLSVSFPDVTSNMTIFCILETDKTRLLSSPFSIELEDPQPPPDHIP


How the values were obtained:
[1] = molecular target: T1, CD86-mIgG (Ancell, Inc); test: SPR (BIAcore T100), CD86-mIgG immobilized on CM5; first site
Description: (§1) SPR measurements were performed on a BIAcore™ T100 SPR (Pharmacia Biotech AB, Uppsala) using HBS-EP+ (GE Healthcare) as a running buffer. […] CTLA4-containing constructs were injected for 150 seconds, at a flow rate of 10 μl/min, in a series of concentrations from 4 nM to 10 μM. Dissociation was monitored for 600 seconds, and the surface was either regenerated by injecting 50 mM sodium citrate, 500 mM sodium chloride, pH 5.0, for 60 seconds (wild type CTLA4) or 10 mM glycine, pH 1.7 (L104E A29Y CTLA4). […] Data were analyzed using BiaEvaluation for the T100 software (version 2.0.1, GE Healthcare).
(§2) SPR measurements were performed as listed above, with the following exceptions: HBS-P+ (GE Healthcare) was used as a running buffer; dissociation was monitored for 1200 seconds; and the surface was regenerated by injecting 10 mM glycine, pH 1.7, for 60 seconds.

[2] = molecular target: T1, CD86-mIgG (Ancell, Inc); test: SPR (BIAcore T100), CD86-mIgG immobilized on CM5; second site
Description: as §1, §2

[3] = molecular target: T1, CD86-mIgG (Ancell, Inc); test: SPR (BIAcore T100), CD86-mIgG immobilized on CM5; steady-state equilibrium fit
Description: as §1, §2

Row | Binder | koff [1] | kon [1] | Second Site ka [2] | Second Site kd [2] | Kd [3]
1 | FUN1 mAb (parent murine anti-CD86 monoclonal antibody) (antibody, V domains shown, Murine monoclonal antibody; also called FUN1 antibody) VH: EVQLQQSGPELEKPGASVKISCKASGYSFTDYNMNWVKQSNGKSLEWIGNIDPYYGGTSYNQKFKGKATLTVDKSSSTAYMQLNSLTSEDSAVYFCARWDYRYDDGRAYYVMDFWGQGTSVTVSS VL: ELQMTQSPSSLAASAGEKVTMSCKSSQSVLYSSNQKNYLAWYQQKPGQSPKLLIYWASTRESGVPDRFTGSGSGTHFTLTVSSVQAEDLAVYYCHQYLYSWTFGGGTNLEIKR | 2.28e-05 s⁻¹ | 129000 M⁻¹ s⁻¹ | 0.00278 s⁻¹ | 0.0154 s⁻¹ | 36 nM
2 | IL10::3D1 xceptor (Fc fusion) SPGQGTQSENSCTHFPGNLPNMLRDLRDAFSRVKTFFQMKDQLDNLLLKESLLEDFKGYLGCQALSEMIQFYLEEVMPQAENQDPDIKAHVNSLGENLKTLRLRLRRCHRFLPCENKSKAVEQVKNAFNKLQEKGIYKAMSEFDIFINYIEAYITMKIRNLEPKSSDKTHTCPPCPAPEAAGAPSVFLFPPKPKDTLMISRTPEVTCVVVDVSHEDPEVKFNWYVDGVEVHNAKTKPREEQYNSTYRVVSVLTVLHQDWLNGKAYACAVSNKALPAPIEKTISKAKGQPREPQVYTLPPSRDELTKNQVSLTCLVKGFYPSDIAVEWESNGQPENNYKTTPPVLDSDGSFFLYSKLTVDKSRWQQGNVFSCSVMHEALHNHYTQKSLSLSPGNSLFNQEVQIPLTESYSPNSQVQLQQSGPELVRPGESVKISCKGSGYTFTDYAIQWVKQSHAKSLEWIGVINIYYDNTNYNQKFKGKATMTVDKSSSTAYMELARLTSEDSAIYYCARAAWYMDYWGQGTSVTVSSGGGGSGGGGSGGGGSGGGGSDIVLSQSPSSLAVSAGEKVTMSCKSSQSLLNSRTRENYLAWYQQKPGQSPKLLIYWASTRESGVPDRFTGSGSGTDFTLTISSVQAEDLAVYYCTQSYNLYTFGGGTKLEIK | 8.3e-05 s⁻¹ | 617000 M⁻¹ s⁻¹ | 0.0124 s⁻¹ | 0.102 s⁻¹ | 35.7 nM
3 | FUN1-21 PIMS (Fc fusion, PIMS: humanized FUN1-21 scFv at the carboxy-terminus) EPKSSDKTHTCPPCPAPEAAGAPSVFLFPPKPKDTLMISRTPEVTCVVVDVSHEDPEVKFNWYVDGVEVHNAKTKPREEQYNSTYRVVSVLTVLHQDWLNGKAYACAVSNKALPAPIEKTISKAKGQPREPQVYTLPPSRDELTKNQVSLTCLVKGFYPSDIAVEWESNGQPENNYKTTPPVLDSDGSFFLYSKLTVDKSRWQQGNVFSCSVMHEALHNHYTQKSLSLSPGNSLFNQEVQIPLTESYSPNSQVQLVQSGAEVKKPGASVKVSCKASGYTFTDYNMNWVRQAPGQGLEWMGNIDPYYGGTSYNQKFKGRVTMTRDTSISTAYMELSRLRSDDTAVYYCARWDYRYDDGRAYYVMDFWGQGTTVTVSSGGGGSGGGGSGGGGSGGGGSDIVMTQSPDSLAVSLGERATINCKSSQSVLYSSNQKNYLAWYQQKPGQPPKLLIYWASTRESGVPDRFSGSGSGTDFTLTISSLQAEDVAVYYCHQYLYSWTFGQGTKLEIKR | 9.1e-05 s⁻¹ | 50000 M⁻¹ s⁻¹ | 0.00113 s⁻¹ | 0.00837 s⁻¹ | 70.9 nM
4 | FUN1-11 humanized FUN1 SMIP (Fc fusion, SMIP: scFv-hinge-Fc single chain) EVQLVQSGAEVKKPGATVKISCKVSGYTFTDYNMNWVQQAPGKGLEWMGNIDPYYGGTSYNQKFKGRVTITADTSTDTAYMELSSLRSEDTAVYYCATWDYRYDDGRAYYVMDFWGQGTTVTVSSGGGGSGGGGSGGGGSGGGGSDIVMTQSPDSLAVSLGERATINCKSSQSVLYSSNQKNYLAWYQQKPGQPPKLLIYWASTRESGVPDRFSGSGSGTDFTLTISSLQAEDVAVYYCHQYLYSWTFGQGTKLEIKRLEPKSSDKTHTCPPCPAPEAAGAPSVFLFPPKPKDTLMISRTPEVTCVVVDVSHEDPEVKFNWYVDGVEVHNAKTKPREEQYNSTYRVVSVLTVLHQDWLNGKAYACAVSNKALPAPIEKTISKAKGQPREPQVYTLPPSRDELTKNQVSLTCLVKGFYPSDIAVEWESNGQPENNYKTTPPVLDSDGSFFLYSKLTVDKSRWQQGNVFSCSVMHEALHNHYTQKSLSLSPG | 0.00035 s⁻¹ | 13900 M⁻¹ s⁻¹ | 7.5e-05 s⁻¹ | 1.25e-06 s⁻¹ | 119 nM

These reach a lower Kd [3]. Values come first.

Row | koff [1] | kon [1] | Second Site ka [2] | Second Site kd [2] | Kd [3] | Binder
5 | 2.37e-05 s⁻¹ | 112000 M⁻¹ s⁻¹ | 0.00077 s⁻¹ | 0.00377 s⁻¹ | 28 nM | SEQ ID NO: 328 (Fc fusion, also called 3D1 PIMS (probably)) EPKSSDKTHTCPPCPAPEAAGAPSVFLFPPKPKDTLMISRTPEVTCVVVDVSHEDPEVKFNWYVDGVEVHNAKTKPREEQYNSTYRVVSVLTVLHQDWLNGKAYACAVSNKALPAPIEKTISKAKGQPREPQVYTLPPSRDELTKNQVSLTCLVKGFYPSDIAVEWESNGQPENNYKTTPPVLDSDGSFFLYSKLTVDKSRWQQGNVFSCSVMHEALHNHYTQKSLSLSPGNSLFNQEVQIPLTESYSPNSQVQLQQSGPELVRPGESVKISCKGSGYTFTDYAIQWVKQSHAKSLEWIGVINIYYDNTNYNQKFKGKATMTVDKSSSTAYMELARLTSEDSAIYYCARAAWYMDYWGQGTSVTVSSGGGGSGGGGSGGGGSGGGGSDIVLSQSPSSLAVSAGEKVTMSCKSSQSLLNSRTRENYLAWYQQKPGQSPKLLIYWASTRESGVPDRFTGSGSGTDFTLTISSVQAEDLAVYYCTQSYNLYTFGGGTKLEIK
6 | 0.000139 s⁻¹ | 186000 M⁻¹ s⁻¹ | 0.00578 s⁻¹ | 0.0127 s⁻¹ | 26.9 nM | FUN1-21 humanized FUN1 SMIP (Fc fusion, SMIP: scFv-hinge-Fc single chain) QVQLVQSGAEVKKPGASVKVSCKASGYTFTDYNMNWVRQAPGQGLEWMGNIDPYYGGTSYNQKFKGRVTMTRDTSISTAYMELSRLRSDDTAVYYCARWDYRYDDGRAYYVMDFWGQGTTVTVSSGGGGSGGGGSGGGGSGGGGSDIVMTQSPDSLAVSLGERATINCKSSQSVLYSSNQKNYLAWYQQKPGQPPKLLIYWASTRESGVPDRFSGSGSGTDFTLTISSLQAEDVAVYYCHQYLYSWTFGQGTKLEIKRLEPKSSDKTHTCPPCPAPEAAGAPSVFLFPPKPKDTLMISRTPEVTCVVVDVSHEDPEVKFNWYVDGVEVHNAKTKPREEQYNSTYRVVSVLTVLHQDWLNGKAYACAVSNKALPAPIEKTISKAKGQPREPQVYTLPPSRDELTKNQVSLTCLVKGFYPSDIAVEWESNGQPENNYKTTPPVLDSDGSFFLYSKLTVDKSRWQQGNVFSCSVMHEALHNHYTQKSLSLSPG
7 | 7.06e-05 s⁻¹ | 974000 M⁻¹ s⁻¹ | 0.0094 s⁻¹ | 0.0462 s⁻¹ | 26.5 nM | 3D1::IL10 xceptor (Fc fusion, anti-CD86 3D1 scFv - Fc - IL10) QVQLQQSGPELVRPGESVKISCKGSGYTFTDYAIQWVKQSHAKSLEWIGVINIYYDNTNYNQKFKGKATMTVDKSSSTAYMELARLTSEDSAIYYCARAAWYMDYWGQGTSVTVSSGGGGSGGGGSGGGGSGGGGSDIVLSQSPSSLAVSAGEKVTMSCKSSQSLLNSRTRENYLAWYQQKPGQSPKLLIYWASTRESGVPDRFTGSGSGTDFTLTISSVQAEDLAVYYCTQSYNLYTFGGGTKLEIKLEPKSSDKTHTCPPCPAPEAAGAPSVFLFPPKPKDTLMISRTPEVTCVVVDVSHEDPEVKFNWYVDGVEVHNAKTKPREEQYNSTYRVVSVLTVLHQDWLNGKAYACAVSNKALPAPIEKTISKAKGQPREPQVYTLPPSRDELTKNQVSLTCLVKGFYPSDIAVEWESNGQPENNYKTTPPVLDSDGSFFLYSKLTVDKSRWQQGNVFSCSVMHEALHNHYTQKSLSLSPGNSLFNQEVQIPLTESYSPNSSPGQGTQSENSCTHFPGNLPNMLRDLRDAFSRVKTFFQMKDQLDNLLLKESLLEDFKGYLGCQALSEMIQFYLEEVMPQAENQDPDIKAHVNSLGENLKTLRLRLRRCHRFLPCENKSKAVEQVKNAFNKLQEKGIYKAMSEFDIFINYIEAYMTMKIRN
8 | 4.4e-05 s⁻¹ | 323000 M⁻¹ s⁻¹ | 0.0055 s⁻¹ | 0.0276 s⁻¹ | 11.7 nM | 3D1 SMIP (Fc fusion, SMIP: murine 3D1 scFv at the N-terminus of a hinge-Fc single chain) QVQLQQSGPELVRPGESVKISCKGSGYTFTDYAIQWVKQSHAKSLEWIGVINIYYDNTNYNQKFKGKATMTVDKSSSTAYMELARLTSEDSAIYYCARAAWYMDYWGQGTSVTVSSGGGGSGGGGSGGGGSGGGGSDIVLSQSPSSLAVSAGEKVTMSCKSSQSLLNSRTRENYLAWYQQKPGQSPKLLIYWASTRESGVPDRFTGSGSGTDFTLTISSVQAEDLAVYYCTQSYNLYTFGGGTKLEIKLEPKSSDKTHTCPPCPAPEAAGAPSVFLFPPKPKDTLMISRTPEVTCVVVDVSHEDPEVKFNWYVDGVEVHNAKTKPREEQYNSTYRVVSVLTVLHQDWLNGKAYACAVSNKALPAPIEKTISKAKGQPREPQVYTLPPSRDELTKNQVSLTCLVKGFYPSDIAVEWESNGQPENNYKTTPPVLDSDGSFFLYSKLTVDKSRWQQGNVFSCSVMHEALHNHYTQKSLSLSPG
